Source: patent US20230128075A1
Changes are numbered by the printed parent chain. Blank lines part the entries; values can stand above or below the binder they belong to.

Target: HSP70 (antigen; source and nucleotide state not stated) (Homo sapiens (Human)) (UniProt P0DMV8)
Assay: biosensor, anti-human Fc capture, antigen 100 nM

Chain of HSP70 (antigen; source and nucleotide state not stated) (Homo sapiens (Human)) (P0DMV8 whole entry): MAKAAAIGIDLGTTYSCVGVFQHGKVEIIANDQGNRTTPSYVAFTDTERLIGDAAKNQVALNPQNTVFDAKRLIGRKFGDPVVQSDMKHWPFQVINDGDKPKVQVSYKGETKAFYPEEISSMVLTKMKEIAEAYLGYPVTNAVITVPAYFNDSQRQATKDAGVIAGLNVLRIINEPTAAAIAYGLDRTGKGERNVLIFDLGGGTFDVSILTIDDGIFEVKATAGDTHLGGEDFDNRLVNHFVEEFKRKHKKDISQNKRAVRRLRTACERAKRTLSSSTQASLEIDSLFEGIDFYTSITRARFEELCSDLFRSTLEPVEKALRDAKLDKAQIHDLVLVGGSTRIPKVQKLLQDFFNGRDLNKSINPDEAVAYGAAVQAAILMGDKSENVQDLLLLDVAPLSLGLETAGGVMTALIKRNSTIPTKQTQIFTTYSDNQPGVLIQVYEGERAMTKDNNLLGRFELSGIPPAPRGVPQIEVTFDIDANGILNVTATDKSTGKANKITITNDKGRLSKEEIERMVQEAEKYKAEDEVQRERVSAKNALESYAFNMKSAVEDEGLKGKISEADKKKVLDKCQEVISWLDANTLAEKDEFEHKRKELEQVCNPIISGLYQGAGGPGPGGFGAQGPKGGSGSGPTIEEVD

- % Diss: -115%
- X = 1495: 0.0133 nM
B1: h77A-1.52 (antibody, V domains shown)
VH: QIQLVQSGVEVKKPGASVKVSCKASGYIFTNYGMNWVRQAPGQGLEWMGWINTYTGEPRYADDFKGRFTFTTDTSTSTAYMELRSLRSDDTAVYFCARYDHRMDYWGQGTLVTVSS
VL: EIVLTQSPDSLAVSLGERATINCKSSQSLLNSGTRKNYLAWYQQKAGQSPKLLIYWTSTRESGVPDRFSGSGSGTDFTLTIDSLQAEDVAVYYCKQSYTLYTFGGGTKVEIK

- % Diss: -37.4%
- X = 610: 0.0131 nM
B2: h77A-1.79 (antibody, V domains shown)
VH: B1 VH with V9A, I28T, N31K
VL: B1 VL with A46P, T99N

- % Diss: -41.2%
- X = 610: 0.0068 nM
B3: h77A-1.54 (antibody, V domains shown)
VH: B1 VH with V9A, I28T, N31K, R59K, A61G
VL: B1 VL

- % Diss: -8.84%
- X = 610: 0.0181 nM
B4: h77A-1.80 (antibody, V domains shown)
VH: B1 VH with V9A, I28T, R59K, R102V
VL: B1 VL with A40S, A46P, L53I
